This note sets out measurements from US20160355553A1 (Janssen / Centocor, published 2016).

Positions count from the first letter of the chain named.

One test addresses HK68 H3m2-cl9+10+11+12 (influenza A virus H3N2, UniProt Q91MA7 17-566). The test is described as follows: FACS on HEK293F [D00014 FIG. 10B].
Another test deals with HK68 H3m2-cl9+10+11+13 (influenza A virus H3N2, UniProt Q91MA7 17-566). The test is described as follows: FACS on HEK293F [D00014 FIG. 10B].
For test [1], the target named is HK68 H3m2-cl9+10+11+12-GCN4 (influenza A virus H3N2, UniProt Q91MA7 17-566). The test is described as follows: FACS on HEK293F [D00014 FIG. 10B].
Test [2] concerns the target HK68 H3m2-cl9+10+11+12-tri (influenza A virus H3N2, UniProt Q91MA7 17-566). In words: FACS on HEK293F [D00014 FIG. 10B].
Another test concerns the target HK68 H3m2-cl9+10+12 (influenza A virus H3N2, UniProt Q91MA7 17-566). The test is described as follows: FACS on HEK293F [D00014 FIG. 10B].
A further test addresses HK68 H3m2-cl9 (influenza A virus H3N2, UniProt Q91MA7 17-566). In words: FACS on HEK293F [D00014 FIG. 10B].
Another test addresses T1, Mal2506-04 B-m2 (influenza B virus, UniProt P03461 6-574).
T1 chain: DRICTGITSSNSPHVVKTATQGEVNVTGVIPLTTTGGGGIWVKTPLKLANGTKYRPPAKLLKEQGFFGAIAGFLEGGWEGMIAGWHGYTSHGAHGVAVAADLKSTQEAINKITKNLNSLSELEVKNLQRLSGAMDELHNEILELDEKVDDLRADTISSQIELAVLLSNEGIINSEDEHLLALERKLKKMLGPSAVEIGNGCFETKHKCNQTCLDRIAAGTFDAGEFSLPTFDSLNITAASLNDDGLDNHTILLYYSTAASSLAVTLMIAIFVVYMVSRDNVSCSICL
In words: FACS, transfected cells.

Another test deals with T2, Mal2506-04 B-m2-CL1+5 (influenza B virus, UniProt P03461 6-574).
T2 chain: T1 chain with K43C, V124T, L127S, L130T, L137G, S157C
In words: FACS, transfected cells.

The target of another test is T3, FL4-06 B-m2-CL1+5 (influenza B virus, UniProt P03461 6-574).
T3 chain: T1 chain with K43C, V124T, L127S, L130T, L137G, S157C, D222N, I268L, V272I
In words: FACS, transfected cells.

In test [3] the target is T4, Mal2506-04 B-m2-CL1+5-GCN4b (influenza B virus, UniProt P03461 6-574).
T4 chain: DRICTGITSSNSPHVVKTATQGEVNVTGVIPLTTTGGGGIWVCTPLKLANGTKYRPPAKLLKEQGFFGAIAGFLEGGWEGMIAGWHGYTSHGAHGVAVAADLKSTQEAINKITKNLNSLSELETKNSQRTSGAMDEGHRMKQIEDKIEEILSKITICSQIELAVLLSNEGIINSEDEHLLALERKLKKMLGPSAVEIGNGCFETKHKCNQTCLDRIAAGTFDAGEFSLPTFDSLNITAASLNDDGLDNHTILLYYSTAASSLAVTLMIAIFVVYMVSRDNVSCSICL
In words: FACS, transfected cells.

A further test deals with T5, FL4-06 B-m2-CL1+5-GCN4a (influenza B virus, UniProt P03461 6-574).
T5 chain: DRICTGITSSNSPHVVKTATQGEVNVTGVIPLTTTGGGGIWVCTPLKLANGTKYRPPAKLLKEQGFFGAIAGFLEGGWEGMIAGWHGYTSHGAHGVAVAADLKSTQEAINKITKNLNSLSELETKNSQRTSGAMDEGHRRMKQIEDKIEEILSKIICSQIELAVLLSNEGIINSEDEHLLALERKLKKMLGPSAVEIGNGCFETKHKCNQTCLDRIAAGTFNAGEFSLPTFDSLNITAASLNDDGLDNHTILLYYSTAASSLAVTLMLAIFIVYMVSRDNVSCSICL
The test is described as follows: FACS, transfected cells.

Another test has as its target FL4-06 B-m2 (influenza B virus, UniProt P03461 6-574). In words: FACS, transfected cells.
Test [4] deals with T6, Mal2506-04 B-m2-CL1+5-GCN4a (influenza B virus, UniProt P03461 6-574).
T6 chain: T5 chain with N222D, L268I, I272V
In words: FACS, transfected cells.

B1: CR8057 (antibody, V domains shown)
VH: EVQLVESGGGLVQPGGSLRLSCAASGFTDSVIFMSWVRQAPGKGLECVSIIYIDDSTYYADSVKGRFTISRHNSMGTVFLEMNSLRPDDTAVYYCATESGDFGDQTGPYHYYAMDV
VL: QSALTQPASVSGSPGQSITISCTGSSGDIGGYNAVSWYQHHPGKAPKLMIYEVTSRPSGVSDRFSASRSGDTASLTVSGLQAEDEAHYYCCSFADSNILI
Consider B1, for which the binding result (with HK68 H3m2-cl9+10+11+12; with HK68 H3m2-cl9+10+11+13; in test [1]; in test [2]; with HK68 H3m2-cl9+10+12; with HK68 H3m2-cl9) was “no binding (tested: 5 ug/ml)” each time.

B2: CR9114 (antibody, V domains shown)
VH: QVQLVQSGAEVKKPGSSVKVSCKSSGGTSNNYAISWVRQAPGQGLDWMGGISPIFGSTAYAQKFQGRVTISADIFSNTAYMELNSLTSEDTAVYFCARHGNYYYYSGMDVWGQGTTVTVSS
VL: SYVLTQPPAVSGTPGQRVTISCSGSDSNIGRRSVNWYQQFPGTAPKLLIYSNDQRPSVVPDRFSGSKSGTSASLAISGLQSEDEAEYYCAAWDDSLKGAVFGGGTQLTVL
With B2, the binding result (with Mal2506-04 B-m2; with Mal2506-04 B-m2-CL1+5; with FL4-06 B-m2-CL1+5; in test [3]; with FL4-06 B-m2-CL1+5-GCN4a; with FL4-06 B-m2) was “no binding” each time. In test [4], the binding result is on record as “no binding”.
